Results as given in US20170088618A1.

Tests used:
[1] = biological target: cynomolgus PD-1 expressed on cells (cynomolgus) (UniProt B0LAJ3); experiment: flow cytometry on CHO cells expressing cynomolgus PD-1; detection with anti-human IgG Fc (PE GeoMFI); fit of a flat control curve
[2] = biological target: human PD-1 expressed on cells (human) (UniProt Q15116); experiment: flow cytometry on CHO cells expressing human PD-1; detection with anti-human IgG Fc (PE GeoMFI); fit of a flat control curve
[3] = biological target: human PD-1 expressed on cells (human) (UniProt Q15116); experiment: cell-based or functional assay

Sequence of UniProt Q15116 (Q15116 25-198 limits assumed): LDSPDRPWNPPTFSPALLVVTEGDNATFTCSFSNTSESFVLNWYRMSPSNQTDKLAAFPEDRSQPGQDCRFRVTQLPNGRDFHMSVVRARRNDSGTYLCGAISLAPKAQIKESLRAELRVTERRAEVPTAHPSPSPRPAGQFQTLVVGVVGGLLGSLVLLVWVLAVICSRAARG
Sequence of UniProt B0LAJ3 (B0LAJ3 entry or part of it limits assumed): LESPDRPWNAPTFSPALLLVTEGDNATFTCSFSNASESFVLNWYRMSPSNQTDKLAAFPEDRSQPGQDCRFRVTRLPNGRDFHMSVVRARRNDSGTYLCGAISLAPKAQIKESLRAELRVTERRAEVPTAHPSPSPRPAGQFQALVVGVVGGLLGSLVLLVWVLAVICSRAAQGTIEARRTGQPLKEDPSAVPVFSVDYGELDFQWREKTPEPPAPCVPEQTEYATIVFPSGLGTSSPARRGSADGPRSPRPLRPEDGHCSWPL

Row | Substance | LogEC50 [1] | LogEC50 [2] | IL-17 and IFN-γ levels, human whole blood assay, EC50 [3] [nM]
1 | huIgG1 Fc | -6.89 log10(nM) | -7.75 log10(nM) | –
2 | human IgG Fc fragment | – | – | > 100
